Values of other authors, collected in publication PMC11267001.

Biological target: DOCK5ΔC/ELMO1 DOCK5 1-1642 (Homo sapiens) (UniProt Q9H7D0)

- Kd: 10 µM
Substance: RhoG (from UniProt P84095)
